# Assay results from paper PMC5629025 (2017).
# B1: FLAG-, HA-tagged wild-type Bag-1L [human] / androgen receptor, endogenous in LNCaP cells [human (endogenous in LNCaP)] (parent complex)
# chain 1: MAQRGGARRPRGDRERLGSRLRALRPGREPRQSEPPAQRGPPPSGRPPARSTASGHDRPTRGAAAGARRPRMKKKTRRRSTRSEELTRSEELTLSEEATWSEEATQSEEATQGEEMNRSQEVTRDEESTRSEEVTREEMAAAGLTVTVTHSNEKHDLHVTSQQGSSEPVVQDLAQVVEEVIGVPQSFQKLIFKGKSLKEMETPLSALGIQDGCRVMLIGKKNSPQEEVELKKLKHLEKSVEKIADQLEELNKELTGIQQGFLPKDLQAEALCKLDRRVKATIEQFMKILEEIDTLILPENFKDSRLKRKGLVKKVQAFLAECDTVEQNICQETERLQSTNFALAE
# chain 2: MEVQLGLGRVYPRPPSKTYRGAFQNLFQSVREVIQNPGPRHPEAASAAPPGASLLLLQQQQQQQQQQQQQQQQQQQQQQQETSPRQQQQQQGEDGSPQAHRRGPTGYLVLDEEQQPSQPQSALECHPERGCVPEPGAAVAASKGLPQQLPAPPDEDDSAAPSTLSLLGPTFPGLSSCSADLKDILSEASTMQLLQQQQQEAVSEGSSSGRAREASGAPTSSKDNYLGGTSTISDNAKELCKAVSVSMGLGVEALEHLSPGEQLRGDCMYAPLLGVPPAVRPTPCAPLAECKGSLLDDSAGKSTEDTAEYSPFKGGYTKGLEGESLGCSGSAAAGSSGTLELPSTLSLYKSGALDEAAAYQSRDYYNFPLALAGPPPPPPPPHPHARIKLENPLDYGSAWAAAAAQCRYGDLASLHGAGAAGPGSGSPSAAASSSWHTLFTAEEGQLYGPCGGGGGGGGGGGGGGGGGGGGGGGEAGAVAPYGYTRPPQGLAGQESDFTAPDVWYPGGMVSRVPYPSPTCVKSEMGPWMDSYSGPYGDMRLETARDHVLPIDYYFPPQKTCLICGDEASGCHYGALTCGSCKVFFKRAAEGKQKYLCASRNDCTIDKFRRKNCPSCRLRKCYEAGMTLGARKLKKLGNLKLQEEGEASSTTSPTEETTQKLTVSHIEGYECQPIFLNVLEAIEPGVVCAGHDNNQPDSFAALLSSLNELGERQLVHVVKWAKALPGFRNLHVDDQMAVIQYSWMGLMVFAMGWRSFTNVNSRMLYFAPDLVFNEYRMHKSRMYSQCVRMRHLSQEFGWLQITPQEFLCMKALLLFSIIPVDGLKNQKFFDELRMNYIKELDRIIACKRKNPTSCSRRFYQLTKLLDSVQPIARELHQFTFDLLIKSHMVSVDFPEMMAEIISVQVPKILSGKVKPIYFHTQ
# Variants of: B1
# Assay: SILAC RIME; LNCaP cells stably expressing FLAG-HA-tagged wild-type or CMut Bag-1L; parent: 21; read off a plot
row,Variant,response
1,"chain 1 K231A, chain 1 K232A, chain 1 K279A",~19 log2 intensity
